# Source: US20230228751 (APTAMER DIAGNOSTICS LIMITED, published 2023)
# Where a chain is given by its changes, count along the chain named.
# B1: S1_B11-A (ssDNA)
# DNA: CCAGTGTAGACTACTCAATGCGTGTGGTGACCTTGACCTTGGATTATGGGTTTGGGCGGGAGGGTACTATCCACAGGTCAACC
# B2: S1_B1 (ssDNA)
# DNA: CCAGTGTAGACTACTCAATGCCGATGGGTCGGGTGGGTGGGTAGGCATTGATCGCTCCTCAGTACTATCCACAGGTCAACC
# B3: S1_B12-B (ssDNA)
# DNA: CCAGTGTAGACTACTCAATGCTGTGTTGACTTGATCCTGTGGTATATGGGTGGGAGGGATGGGTACTATCCACAGGTCAACC
# B4: S1_C1-B (ssDNA)
# DNA: CCAGTGTAGACTACTCAATGCCGCTTCTCGACCGCCCCTTGTTTTGGTTCTTTTGTCCGTAGTACTATCCACAGGTCAACC
# B5: S1_E6 (ssDNA)
# DNA: CCAGTGTAGACTACTCAATGCCCAGTGGCGAGCGACTTTTTATGTAAGAACATCGATTTTCCATGGTACTATCCACAGGTCAACC
# B6: S1_C3-A (ssDNA)
# DNA: CCAGTGTAGACTACTCAATGCTGTGTTGACTTGATCCTGTGGCATATGGGTGGGAGGGCGGGTACTATCCACAGGTCAACC
# B7: S1_B4 (ssDNA)
# DNA: B6 DNA with C43T, C59A
# B8: S1_B9 (ssDNA)
# DNA: B6 DNA with C43T
# B9: S1_A4 (ssDNA)
# DNA: CCAGTGTAGACTACTCAATGCGTGGGAAGGGTGGGCGGGAGCATTGATAACTCGGAGGAGCGTACTATCCACAGGTCAACC
# B10: S1_C2 (ssDNA)
# DNA: CCAGTGTAGACTACTCAATGCGGCTGTGTGACTTGACCTCTGGATATGGGTGGGAGGGATGGGTACTATCCACAGGTCAACC
# B11: S1_A12 (ssDNA)
# DNA: CCAGTGTAGACTACTCAATGCCGTGTGGTGACCTTGATCCTGTGGTATATGGGTGGGAGGGGCGGGTACTATCCACAGGTCAACC
# B12: S1_A1-A (ssDNA)
# DNA: CCAGTGTAGACTACTCAATGCCGATGGGTCGGGTGGGTGGGTAGGCATTGATCGCTCCTTCCGTACTATCCACAGGTCAACC
# B13: S1_B3 (ssDNA)
# DNA: B12 DNA with T34G, C53T, G54C, C61T
# B14: S1_D6 (ssDNA)
# DNA: CCAGTGTAGACTACTCAATGCTACTGACTCATCTGCCGAATCCAAACCCGACCAGTCCACGGTACTATCCACAGGTCAACC
# B15: S1_E5 (ssDNA)
# DNA: CCAGTGTAGACTACTCAATGCCACCTCCTTTTCCGTTTCTTGTATCATGCTACTATCCTGTGTACTATCCACAGGTCAACC
# B16: S1_A9 (ssDNA)
# DNA: CCAGTGTAGACTTACACCTGCAGTGTTCACGAGGGCCGGCGGTATATGGGCGGTTGATACGAGTACTATCCACAGGTCAACC
# B17: S1_A1-B (ssDNA)
# DNA: CCAGTGTAGACTACTCAATGCGGCTGTGTGACTTGACCTCTGGATATGGGAGGGAGGGCGGGTACTATCCACAGGTCAACC
# B18: S1_E3 (ssDNA)
# DNA: B2 DNA with A61C
# B19: S1_D11-B (ssDNA)
# DNA: CCAGTGTAGACTACTCAATGCCGGCCGGGAGGGAGGGGTGGGTAAAGCCGCGCAACATATAGTACTATCCACAGGTCAACC
# B20: S1_C1-A (ssDNA)
# DNA: B3 DNA with A46T, A59G, T60C
# B21: S1_A3-B (ssDNA)
# DNA: B12 DNA with T34G, C61T
# B22: S1_C8 (ssDNA)
# DNA: B12 DNA with T34G, G54A, C55T, C61T
# B23: S1_A6_F12 (ssDNA)
# DNA: CCAGTGTAGACTACTCAATGCTGTTATGACTTGACCTTGGGTTATGGGTTTGGGCGGGAGGGTA
# B24: S1_A8_F13 (ssDNA)
# DNA: AATGCTGTGTTGACTTGATCCTGTGGTATATGGGTGGGAGGGTCGGGTACTATCCACAGGTCAAC
# B25: S1_A6_F13 (ssDNA)
# DNA: AATGCTGTTATGACTTGACCTTGGGTTATGGGTTTGGGCGGGAGGGTACTATCCACAGGTCAACC
# B26: S1_A8_F14 (ssDNA)
# DNA: ACTTGATCCTGTGGTATATGGGTGGGAGGGTCGGGTACTATCCACAGGTCAAC
# B27: S1_A8_F12 (ssDNA)
# DNA: CCAGTGTAGACTACTCAATGCTGTGTTGACTTGATCCTGTGGTATATGGGTGGGAGGGTCGGGT
# B28: S1_A3_F11 (ssDNA)
# DNA: CCAGTGTAGACTACTCAATGCGTGGGAAGGGTGGGTGGGAGCATTGATAACTC
# B29: S1_A3_F12 (ssDNA)
# DNA: CCAGTGTAGACTACTCAATGCGTGGGAAGGGTGGGTGGGAGCATTGATAACTCGGAGGAGTGTA
# B30: S1_A6_F14 (ssDNA)
# DNA: ACTTGACCTTGGGTTATGGGTTTGGGCGGGAGGGTACTATCCACAGGTCAACC
# Target: SARS-CoV spike S1 subunit (SARS-CoV, UniProt P59594 SEQ:14-667)
# Assay: BLI
# Conditions: tags: SinoBiological; label: 5' biotin
row,Binder,binding result
1,B1,no binding
2,B2,no binding
3,B3,no binding
4,B4,no binding
5,B5,no binding
6,B6,no binding
7,B7,no binding
8,B8,no binding
9,B9,no binding
10,B10,no binding
11,B11,no binding
12,B12,no binding
13,B13,no binding
14,B14,no binding
15,B15,no binding
16,B16,no binding
17,B17,no binding

# Same assay, conditions: tags: SinoBiological; label: 5'-biotin
row,Binder,binding result
1,B18,no binding
2,B19,binds
3,B20,no binding
4,B21,no binding
5,B22,no binding

# Target: SARS-CoV-2 spike RBD (SARS-CoV-2, UniProt P0DTC2 SEQ:1-223)
# Assay: BLI
# Conditions: tags: His tag, SinoBiological 40592-V08H; label: 5'-biotin
row,Binder,binding result
1,B18,binds
2,B19,binds
3,B3,binds
4,B5,binds
5,B6,binds
6,B14,binds
7,B15,binds

# Same assay, conditions: tags: His tag; SinoBiological 40592-V08H; label: 5' biotin
row,Binder,binding result
1,B1,binds
2,B2,binds
3,B20,binds
4,B4,binds
5,B7,binds
6,B8,binds
7,B9,binds
8,B10,binds
9,B11,binds
10,B21,binds
11,B12,binds
12,B13,binds
13,B22,binds
14,B16,binds
15,B17,binds

# Target: SARS-CoV-2 spike S1 subunit (SARS-CoV-2, UniProt P0DTC2 SEQ:1-670)
# Assay: BLI
# Conditions: tags: His tag, SinoBiological 40591-V08B1; label: 5'-biotin
row,Binder,binding result
1,B23,binds
2,B1,binds
3,B24,binds
4,ACTTGATCCTGTGGTATATGGGTGGGAGGGTCGGGT (ssDNA) [S1_A8_F20],binds
5,B18,binds
6,B2,binds
7,B19,binds
8,CCAGTGTAGACTACTCAATGCGTGGGAAGGGTGGGTGGGA (ssDNA) [S1_A3_F9],binds
9,B20,binds
10,B3,no binding
11,B25,binds
12,B4,binds
13,B26,binds
14,B27,binds
15,GGTATATGGGTGGGAGGGTCGGGT (ssDNA) [S1_A8_F22],binds
16,AATGCGTGGGAAGGGTGGGTGGGAG (ssDNA) [S1_A3_F17],binds
17,B5,no binding
18,B6,no binding

row,Binder,binding result
1,B7,binds
2,B8,binds
3,B9,binds
4,B10,binds
5,B11,binds
6,B21,binds
7,B12,binds
8,B13,binds
9,B22,binds
10,B14,no binding
11,B28,binds
12,B15,no binding
13,B16,binds
14,B29,binds
15,B30,binds
16,B17,binds
17,GTATATGGGTGGGAGGGTCGGGTACTATCCACAGGTCAAC (ssDNA) [S1_A8_F2],binds
18,CCAGTGTAGACTACTCAATGCGTGGGAAGGGTGGGTGGGAGCATTGAT (ssDNA) [S1_A3_F10],binds
